{"source": "patent US20230313217A1", "about": "“CHLOROPLAST TARGETING PEPTIDES AND CONJUGATES AND COMPOSITIONS THEREOF” (The Regents of the University of California, priority 2021, published 2023)", "key": {"[1]": {"tested_on": "chloroplasts in Arabidopsis leaves", "experiment": "Confocal colocalization of nanomaterials with chloroplasts after foliar spray", "assay_type": "in vivo, Arabidopsis thaliana", "experimental": "In Vivo Imaging of Chloroplast Targeted Nanomaterials. Confocal fluorescence microscopy imaging was used to determine the colocalization between chloroplasts in Arabidopsis leaves and both targeted and nontargeted β-CDs and CY3-ds(GT)15 (SEQ ID NO: 6) DNA coated SWCNT (FIG. 3A,B). Nanomaterials were foliar sprayed on whole plants in a formulation containing 0.1% Silwet (v/v) (Table 1). Control confocal images of leaves treated with only 10 mM TES buffer have no background autofluorescence in CD and CY3-ds(GT)15 (SEQ ID NO: 6) DNA emission channels (FIG. 12). The level of colocalization of fluorescent emission from nanocarriers with chloroplasts was determined by Manders' coefficient analysis (COLOC2, ImageJ) (FIG. 3C). The localization of targeted nanomaterials (TP-β-CD and TP-CY3-ds(GT)15-SWCNT) with chloroplasts in leaf mesophyll cells was higher compared to nontargeted materials lacking the targeting peptide (β-CD and CY3-ds(GT)15-SWCNT). […] Previously, we reported an in vivo increase in colocalization of chloroplasts with heavy-metal-based quantum dots functionalized with chloroplast targeting biorecognition peptides,^16 indicating the robustness of this approach for a variety of targeted nanomaterials. […]\nConfocal Fluorescence Microscopy. […]"}, "[2]": {"tested_on": "Arabidopsis leaf tissues", "experiment": "Chlorophyll content index (SPAD) measurements", "assay_type": "in vivo, Arabidopsis thaliana", "conditions": "20 mg/L / 2 mg/L", "experimental": "Chlorophyll content index (CCI) was measured in plants treated one and five days after treatment with nanomaterials and buffer control solution (10 mM TES, pH 7.0). Three-week-old Arabidopsis plants were exposed to β-CD, TP-β-CD, pATV1-SWCNT, or TP-pATV1-SWCNT. The CCI measurements were performed using chlorophyll meters (SPAD-502 plus, Konica Minolta, Tokyo, Japan; CCI readout resolution: 0.1) with each leaf being measured three times for CCI readouts. The onset of leaf senescence was determined by a marked decrease in chlorophyll levels (FIG. 14B). Experiments before 4-weeks of development are ideal to avoid plant senescence symptoms such as the increase in programmed cell death rates and decrease in chlorophyll content.^6-9"}, "[3]": {"tested_on": "whole plant cell DNA", "conditions": "in vivo", "description": "DNA was extracted from plant leaf tissue and prepared using a Quick-DNA Plant/Seed DNA Miniprep kit (Zymo) in leaf samples treated with nanomaterials from one to five days. Each DNA sample contained 150 mg of plant tissue or 1 mL of isolated chloroplast suspension collected as explained above. Samples were placed in liquid nitrogen-filled mortar and pestle, ground, and placed directly into a Zymo BashingBead Lysis Tube with 750 μL BashingBead Buffer. The mixture was homogenized on a mixer mill (Retsch MM 400) for 10 minutes at 28 Hz. The DNA extraction was performed according to the manufacturer's instructions (zymoresearch.com) and concentrations were measured using a Nanodrop ND-1000 Spectrophotometer. Samples were stored at −20° C. until used for the 8-OHdG DNA damage biomarker assay.\nWe determined the amount of oxidative DNA damage in plant leaves treated with nanomaterials for one day or five days using an enzyme-linked immunosorbent assay (ELISA) for 8-hydroxydeoxyguanosine (8-OHdG). The OxiSelect™ Oxidative DNA Damage ELISA Kit (Cat# STA-320, Cell Biolabs, inc.) quantifies the amount of 8-OHdG in isolated DNA samples from plant leaf tissue or isolated chloroplast suspensions. […] Sample absorbance was read at 450 nm on an Infinite MPlex plate reader (Tecan)."}}, "note": "Ends that are not written are not given here.", "data": [{"substance": "TP-β-CD: carbon dots with β-cyclodextrin molecular baskets covalently bonded to chloroplast targeting peptide MASSMLSSATMVGGC (SEQ ID NO:5) (also: covalently bonded to carbon dots with β-cyclodextrin, site not given here)", "values": [{"measurement": "colocalization rates of nanomaterials with chloroplasts", "setting": "[1]; foliar spray, CD 20 mg/L, ds(GT)15-SWCNT 2 mg/L, Manders' coefficient, FIG. 3C", "value": "70.0±9.46", "unit": "%"}, {"measurement": "delivery, % of chloroplasts in leaves", "setting": "[1]; summary of Example 1", "value": 70, "unit": "%"}, {"measurement": "chlorophyll content index (CCI)", "setting": "[2]; after 1 day of exposure", "value": "35.5±1.4"}, {"measurement": "chlorophyll content index (CCI)", "setting": "[2]; after 5 days of exposure", "value": "38.0±2.8"}, {"measurement": "increase in oxidative damage to whole plant cell DNA", "setting": "[3]", "value": 2, "unit": "fold"}]}]}
